These results are taken from PMC10457384 (2023).

Assay [1] addresses T1, Max 37-83 (Homo sapiens, UniProt P61244).
T1 chain: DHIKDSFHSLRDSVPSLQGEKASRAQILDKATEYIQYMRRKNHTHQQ
As to the kind of experiment: single-molecule SiNW-FET electrical recording (pH 6.5).

The target in assay [2] is T1, Max 37-83. In words: single-molecule SiNW-FET electrical recording (pH 7.4, 37 °C).

KRRTHNVLERQRRNELKRSFFALRDQIPELENNEKAPKVVILKKA (C-terminal cysteine added to c-Myc, immobilized on nanowire) [c-Myc 370-414]: the Kd (in general, the free concentration of one partner at which half of the binding sites on the other are occupied at equilibrium, for simple one-to-one binding) in assay [1] came to 67 nM; in assay [2], 205 nM.
